Measured values taken from US20110059889A1 (SYNTONIX PHARMACEUTICALS, published 2011).
Read-outs that look alike come from different tables or passages of the source. Each block holds one binder with its values, some of them ahead of it. Bridge positions count the residues as written; N and C are the ends. Square brackets hold non-standard residues; d marks the D form. Ends that are not written are not given here. NMeL = CN[C@@H](CC(C)C)C(=O)O; Pen = CC(C)(S)[C@H](N)C(=O)O; Sar = CNCC(=O)O

How the values were obtained:
[1] = biological target: T1, soluble human FcRn (shFcRn) (human, UniProt P55899 24-297; P61769 21-119); assay: IgG competition ELISA
T1 construct: Biotinylated for the ELISA, amine-coupled to a CM5 chip for SPR; also called biotinylated shFcRn
Protocol: (§1) The wells were coated with 100 μl/well of 1 μg/ml biotinylated-shFcRn in Buffer A. The plate was sealed and incubated at 37° C. for 2 hours. Afterwards, the plate was washed with 200 μl/well of Buffer B (Buffer B: 100 mM MES pH 6, 150 mM NaCl, 0.5% BSA IgG-free (Jackson ImmunoResearch, West Grove, Pa.), 0.05% Tween-20). […] To allow for mixing, the plate was rocked for 2 minutes, sealed and incubated at 37° C. for 2 hours. […] The plate was covered, incubated for 30 minutes at room temperature and washed 4 times with 200 μl/well of ice-cold buffer B. SureBlue TMB substrate solution (100 μl/well, KPL, Gaithersburg, Md.) was added and the plate was allowed to incubate at room temperature until color developed, which took 5 to 10 minutes. Once color developed, 100 μl/well of TMB stop solution (KPL, Gaithersburg, Md.) was added and the absorbance was measured at 450 nm. The data was plotted as absorbance vs. peptide concentration to derive the inhibitory concentration 50% (IC₅₀) values.

[2] = biological target: T1, soluble human FcRn (shFcRn); assay: SPR pH 6
Protocol: (§2) The following steps were performed to cross-link soluble human or cynomolgus FcRn to the dextran surface of a CM5 sensor chip (Biacore AB, Uppsala, Sweden) by an amine coupling reaction involving 1-ethyl-(3-dimethylaminopropyl)-carbodiimide hydrochloride (EDC) (Biacore AB, Uppsala, Sweden) and N-hydroxysuccinimide (NHS) (Biacore AB, Uppsala, Sweden) as recommended by Biacore (BIAapplications Handbook, version AB, section 4.2, Biacore AB, Uppsala, Sweden). […] Residual sites on the FcRn flow cell were blocked with 1 M ethanolamine hydrochloride pH 8.5 (Biacore AB, Uppsala, Sweden). A control flow cell was blocked with ethanolamine for reference subtraction. For analysis of the monomeric peptides, FcRn was coated to a final density of 4000-5000 response units (RU). For analysis of the peptide dimers, FcRn was coated to a density of 2000-2500 RU. All SPR measurements were performed using a BIACORE 3000 Instrument (Biacore AB Uppsala, Sweden). For measurements done at either pH 6 or pH 7.4, experiments were performed in 50 mM phosphate, 100 mM sodium chloride, 0.01% surfactant P20 (Biacore AB, Uppsala, Sweden).
(§3) Ten, 2-fold dilutions of the peptide were injected over the FcRn-CM5 chip at a rate of 20 μl/min for 2 min. The peptide was dissociated from the chip for 2.5 minutes with buffer. […] Sensorgrams were generated and analyzed using BiaEval software version 3.1 (Biacore AB, Uppsala, Sweden). […]

[3] = biological target: T1, soluble human FcRn (shFcRn); assay: IgG competition ELISA; remark: listed apart in the source
Protocol: as §1

[4] = biological target: T1, soluble human FcRn (shFcRn); assay: IgG competition ELISA; remark: listed apart in the source
[5] = biological target: T1, soluble human FcRn (shFcRn); assay: SPR pH 6; remark: listed apart in the source
Protocol: as §2
(§4) Ten, 2-fold dilutions of the peptide were injected over the FcRn-CM5 chip at a rate of 20 μl/min for 2 min. The peptide was dissociated from the chip for 2.5 minutes with buffer. Any remaining peptide was removed from the chip with a 30 second injection of HBS-P buffer (Biacore AB, Uppsala, Sweden) at a rate of 30 μl/min. Sensorgrams were generated and analyzed using BiaEval software version 3.1 (Biacore AB, Uppsala, Sweden). The equilibrium RU observed for each injection was plotted against concentration. The equilibrium KD values were derived by analysis of the plots using the steady state affinity model included in the BiaEval software.

[6] = biological target: T1, soluble human FcRn (shFcRn); assay: SPR pH 6; remark: listed apart in the source
Protocol: as §2, §4

[7] = biological target: T1, soluble human FcRn (shFcRn); assay: SPR pH 6; remark: listed apart in the source
Protocol: as §2, §3

[8] = biological target: T1, soluble human FcRn (shFcRn); assay: SPR pH 6; remark: listed apart in the source
Protocol: as §2, §3

[9] = biological target: T1, soluble human FcRn (shFcRn); assay: IgG competition ELISA; remark: listed apart in the source
Protocol: as §1

[10] = biological target: T1, soluble human FcRn (shFcRn); assay: IgG competition ELISA; remark: listed apart in the source
Protocol: as §1

[11] = biological target: T1, soluble human FcRn (shFcRn); assay: IgG competition ELISA; remark: listed apart in the source
Protocol: as §1

[12] = biological target: T1, soluble human FcRn (shFcRn); assay: IgG competition ELISA; remark: listed apart in the source
Protocol: as §1

[13] = biological target: T1, soluble human FcRn (shFcRn); assay: SPR pH 6; remark: listed apart in the source
Protocol: as §2, §3

[14] = biological target: T1, soluble human FcRn (shFcRn); assay: IgG competition ELISA; remark: listed apart in the source
Protocol: as §1

[15] = biological target: T1, soluble human FcRn (shFcRn); assay: IgG competition ELISA; remark: listed apart in the source
Protocol: as §1

[16] = biological target: T1, soluble human FcRn (shFcRn); assay: SPR pH 6; remark: listed apart in the source
Protocol: as §2, §4

[17] = biological target: T1, soluble human FcRn (shFcRn); assay: SPR pH 6; remark: listed apart in the source
Protocol: as §2, §4

[18] = biological target: T1, soluble human FcRn (shFcRn); assay: SPR pH 6; remark: listed apart in the source
Protocol: as §2, §4

[19] = biological target: T1, soluble human FcRn (shFcRn); assay: SPR pH 6; remark: listed apart in the source
Protocol: as §2, §4

[20] = biological target: T1, soluble human FcRn (shFcRn); assay: SPR pH 6; remark: listed apart in the source
Protocol: as §2, §4

[21] = biological target: T1, soluble human FcRn (shFcRn); assay: IgG competition ELISA; remark: listed apart in the source
Protocol: as §1

[22] = biological target: T1, soluble human FcRn (shFcRn); assay: IgG competition ELISA; remark: listed apart in the source
Protocol: as §1

[23] = biological target: T1, soluble human FcRn (shFcRn); assay: IgG competition ELISA; remark: listed apart in the source
Protocol: as §1

[24] = biological target: T1, soluble human FcRn (shFcRn); assay: SPR pH 7.4; 4-PiperidylAla in place of His
Protocol: as §2, §3

[25] = biological target: T1, soluble human FcRn (shFcRn); assay: SPR pH 6; 4-PiperidylAla in place of His
Protocol: as §2, §3

[26] = biological target: T1, soluble human FcRn (shFcRn); assay: SPR pH 6; ThienylAla in place of His
Protocol: as §2, §3

[27] = biological target: T1, soluble human FcRn (shFcRn); assay: SPR pH 7.4; ThienylAla in place of His
Protocol: as §2, §3

[28] = biological target: T1, soluble human FcRn (shFcRn); assay: SPR pH 6; Peptide No. 31: lower-case c at both Cys (QRF-c-…-c-NGP)
Protocol: as §2, §3

[29] = biological target: T1, soluble human FcRn (shFcRn); assay: SPR pH 7.4
Protocol: as §2, §3

[30] = biological target: T1, soluble human FcRn (shFcRn); assay: SPR pH 6; 3PyridylAla in place of His
Protocol: as §2, §3

[31] = biological target: T1, soluble human FcRn (shFcRn); assay: SPR pH 7.4; 3PyridylAla in place of His
Protocol: as §2, §3

[32] = biological target: T1, soluble human FcRn (shFcRn); assay: IgG competition ELISA; remark: listed apart in the source
Protocol: as §1

[33] = biological target: T1, soluble human FcRn (shFcRn); assay: SPR pH 6; Orn in place of His
Protocol: as §2, §3

[34] = biological target: T1, soluble human FcRn (shFcRn); assay: SPR pH 6; 2-PyrrolidinylAla in place of His
Protocol: as §2, §3

[35] = biological target: T1, soluble human FcRn (shFcRn); assay: SPR pH 7.4; 4-PyridylAla in place of His
Protocol: as §2, §3

[36] = biological target: T1, soluble human FcRn (shFcRn); assay: SPR pH 6; 4-PyridylAla in place of His
Protocol: as §2, §3

B2: Peptide No. 32 (peptide)
peptide: QRF[Pen]TGHFGGLYPCNGP-NH2
modifications: disulfide 4-14; N-terminus assumed
SMILES: CC(C)C[C@@H]1NC(=O)CNC(=O)CNC(=O)[C@H](Cc2ccccc2)NC(=O)[C@H](Cc2c[nH]cn2)NC(=O)CNC(=O)[C@H]([C@@H](C)O)NC(=O)[C@@H](NC(=O)[C@H](Cc2ccccc2)NC(=O)[C@H](CCCNC(=N)N)NC(=O)[C@@H](N)CCC(N)=O)C(C)(C)SSC[C@@H](C(=O)N[C@@H](CC(N)=O)C(=O)NCC(=O)N2CCC[C@H]2C(N)=O)NC(=O)[C@@H]2CCCN2C(=O)[C@H](Cc2ccc(O)cc2)NC1=O
Kd [2]: 0.25 µM | IC50 [3]: 2 µM | IC50 [4]: 2 µM | Kd [5]: 0.25 µM | Kd [6]: 0.25 µM | Kd [7]: 0.25 µM | Kd [8]: 0.25 µM | IC50 [9]: 2 µM | IC50 [10]: 2 µM | IC50 [11]: 2 µM | IC50 [12]: 2 µM | Kd [13]: 0.25 µM | IC50 [14]: 2 µM | IC50 [15]: 2 µM | Kd [16]: 0.25 µM | Kd [17]: 0.25 µM | Kd [18]: 0.25 µM | Kd [19]: 0.25 µM | Kd [20]: 0.25 µM | IC50 [21]: 2 µM | IC50 [22]: 2 µM | IC50 [23]: 2 µM

B3: Peptide No. 31 (peptide)
peptide: QRF[dC]TGHFGGLYP[dC]NGP-NH2
modifications: disulfide 4-14; N-terminus assumed
SMILES: CC(C)C[C@@H]1NC(=O)CNC(=O)CNC(=O)[C@H](Cc2ccccc2)NC(=O)[C@H](Cc2c[nH]cn2)NC(=O)CNC(=O)[C@H]([C@@H](C)O)NC(=O)[C@H](NC(=O)[C@H](Cc2ccccc2)NC(=O)[C@H](CCCNC(=N)N)NC(=O)[C@@H](N)CCC(N)=O)CSSC[C@H](C(=O)N[C@@H](CC(N)=O)C(=O)NCC(=O)N2CCC[C@H]2C(N)=O)NC(=O)[C@@H]2CCCN2C(=O)[C@H](Cc2ccc(O)cc2)NC1=O
IC50 [3]: > 500 µM | Kd [28]: 200 µM

B4: Peptide No. 24 (peptide)
peptide: QRFCTGHF[dA][dA]LYPCNGP-NH2
modifications: disulfide 4-14; N-terminus assumed
SMILES: CC(C)C[C@@H]1NC(=O)[C@@H](C)NC(=O)[C@@H](C)NC(=O)[C@H](Cc2ccccc2)NC(=O)[C@H](Cc2c[nH]cn2)NC(=O)CNC(=O)[C@H]([C@@H](C)O)NC(=O)[C@@H](NC(=O)[C@H](Cc2ccccc2)NC(=O)[C@H](CCCNC(=N)N)NC(=O)[C@@H](N)CCC(N)=O)CSSC[C@@H](C(=O)N[C@@H](CC(N)=O)C(=O)NCC(=O)N2CCC[C@H]2C(N)=O)NC(=O)[C@@H]2CCCN2C(=O)[C@H](Cc2ccc(O)cc2)NC1=O
Kd [29]: > 250 µM

Binder: RFCTGXFGGLYPC (Pen 3; 3PyridylAla 6; Sar 9; NMeL 10; disulfide 3-13; C-terminal amide) [Peptide No. 250]
Kd [30]: 0.064 µM | IC50 [9]: 1.2 µM | Kd [31]: 0.26 µM

Binder: QRFVTGHFG[dP]LYPVNGP-NH2 [Peptide No. 167]
IC50 [32]: 93 µM

Next, values leading:

IC50 [1]: 0.018 µM
B1: Peptide No. 289 (peptide)
peptide: RF[Pen]TGHFG[Sar][NMeL]YPC-NH2
modifications: disulfide 3-13; also: dimer: N-termini joined by an Asp linker carrying PEG 30 kDa, further groups not given here
notes: site of PEG only in drawing CHEM-US-00136; also called Pegylated Analog of Peptide No. 285

Kd [24]: 6.4 µM | IC50 [9]: 85 µM | Kd [25]: 5.2 µM
Binder: RFCTGXFGGLYPC (Pen 3; 4-PiperidylAla 6; Sar 9; NMeLeu 10; disulfide 3-13; C-terminal amide) [Peptide No. 264]

IC50 [9]: 45 µM | Kd [26]: 2 µM | Kd [27]: 3 µM
Binder: RFCTGXFGGLYPC (Pen 3; ThienylAla 6; Sar 9; NMeL 10; disulfide 3-13; C-terminal amide) [Peptide No. 251]

Kd [33]: 1.3 µM
Binder: RFCTGXFGGLYPC (Pen 3; Orn 6; Sar 9; NMeL 10; disulfide 3-13; C-terminal amide) [Peptide No. 254]

Kd [34]: 8.4 µM
Binder: RFCTGXFGGLYPC (Pen 3; 2-PyrrolidinylAla 6; Sar 9; NMeLeu 10; disulfide 3-13; C-terminal amide) [Peptide No. 262]

Kd [35]: 0.28 µM | IC50 [9]: 1.3 µM | Kd [36]: 0.067 µM
Binder: RFCTGXFGGLYPC (Pen 3; 4-PyridylAla 6; Sar 9; NMeLeu 10; disulfide 3-13; C-terminal amide) [Peptide No. 268]
